Laboratory results taken from paper PMC4811492, “Dimeric peroxiredoxins are druggable targets in human Burkitt lymphoma” (Oncotarget, 2015).
Changes are numbered by the printed parent chain.

B1: peroxiredoxin 1 (PRDX1), endogenous in Burkitt lymphoma cells (enzyme, human (endogenous in Raji and Ramos), UniProt Q06830 1-199, looked up)
chain: MSSGNAKIGHPAPNFKATAVMPDGQFKDISLSDYKGKYVVFFFYPLDFTFVCPTEIIAFSDRAEEFKKLNCQVIGASVDSHFCHLAWVNTPKKQGGLGPMNIPLVSDPKRTIAQDYGVLKADEGISFRGLFIIDDKGILRQITVNDLPVGRSVDETLRLVQAFQFTDKHGEVCPAGWKPGSDTIKPDVQKSKEYFSKQK
notes: peroxiredoxin 1, human, endogenous in Raji and Ramos Burkitt lymphoma cells; source: endogenous, Raji and Ramos cells
B2: native untagged PRDX1, endogenous in HEK293T cells (enzyme, human (endogenous in HEK293T), UniProt Q06830 1-199, looked up)
chain: B1 chain
notes: peroxiredoxin 1, human, endogenous untagged protein of HEK293T cells; also called native untagged form; source: endogenous, HEK293T cells
B3: recombinant human PRDX1 (enzyme, UniProt Q06830 1-199, looked up)
chain: B1 chain
notes: peroxiredoxin 1, human, recombinant
B4: V5-tagged human wild-type PRDX1 (enzyme, UniProt Q06830 1-199, looked up)
chain: B1 chain
notes: peroxiredoxin 1, human, wild type, expressed from pLenti6/V5-DEST-PRDX1; The vector pLenti6/V5-DEST usually adds the V5 tag at the C-terminus (surmised; the plasmid is printed as PRDX1-V5); also called PRDX1-V5; WT; source: HEK293T, transfected (pLenti6-PRDX1-V5), in cells
B5: V5-tagged human PRDX1 C83A (enzyme, UniProt Q06830 1-199, looked up)
chain: B1 chain with C83A
notes: peroxiredoxin 1, human, Cys83 (outside the active site) changed to Ala; The vector pLenti6/V5-DEST usually adds the V5 tag at the C-terminus (surmised); source: HEK293T, transfected (pLenti6-PRDX1-V5), in cells
B6: peroxiredoxin 2 (PRDX2), endogenous in Burkitt lymphoma cells (enzyme, human (endogenous in Raji and Ramos), UniProt P32119 1-198, looked up)
chain: MASGNARIGKPAPDFKATAVVDGAFKEVKLSDYKGKYVVLFFYPLDFTFVCPTEIIAFSNRAEDFRKLGCEVLGVSVDSQFTHLAWINTPRKEGGLGPLNIPLLADVTRRLSEDYGVLKTDEGIAYRGLFIIDGKGVLRQITVNDLPVGRSVDEALRLVQAFQYTDEHGEVCPAGWKPGSDTIKPNVDDSKEYFSKHN
notes: peroxiredoxin 2, human, endogenous in Raji and Ramos cells; source: endogenous, Raji and Ramos cells
B7: peroxiredoxin 3 (PRDX3), endogenous in Burkitt lymphoma cells (enzyme, human (endogenous in Raji and Ramos), UniProt P30048 62-256, looked up)
chain: APAVTQHAPYFKGTAVVNGEFKDLSLDDFKGKYLVLFFYPLDFTFVCPTEIVAFSDKANEFHDVNCEVVAVSVDSHFSHLAWINTPRKNGGLGHMNIALLSDLTKQISRDYGVLLEGSGLALRGLFIIDPNGVIKHLSVNDLPVGRSVEETLRLVKAFQYVETHGEVCPANWTPDSPTIKPSPAASKEYFQKVNQ
notes: peroxiredoxin 3, human, endogenous in Raji and Ramos cells; source: endogenous, Raji and Ramos cells
B8: peroxiredoxin 4 (PRDX4), endogenous in Burkitt lymphoma cells (enzyme, human (endogenous in Raji and Ramos), UniProt Q13162 38-271, looked up)
chain: WETEERPRTREEECHFYAGGQVYPGEASRVSVADHSLHLSKAKISKPAPYWEGTAVIDGEFKELKLTDYRGKYLVFFFYPLDFTFVCPTEIIAFGDRLEEFRSINTEVVACSVDSQFTHLAWINTPRRQGGLGPIRIPLLSDLTHQISKDYGVYLEDSGHTLRGLFIIDDKGILRQITLNDLPVGRSVDETLRLVQAFQYTDKHGEVCPAGWKPGSETIIPDPAGKLKYFDKLN
notes: peroxiredoxin 4, human, endogenous in Raji and Ramos cells; source: endogenous, Raji and Ramos cells

What was measured:
[1] = molecular target: the molecule itself; test: cross-linking; Raji or Ramos cells cultured with SK053 (10 uM, or indicated concentrations for 24 h) or SK-bio (55 uM, time course); lysates resolved under denaturing and reducing conditions, immunoblot with PRDX-specific antibodies; monomer ~22 kDa, dimer ~44 kDa
[2] = molecular target: the molecule itself; test: cross-linking; HEK293T cells transfected with pLenti6-PRDX1-V5 (WT or Cys-to-Ala variants), 24 h later 41 uM SK053 or DMSO for 24 h; immunoblot with anti-V5 and anti-PRDX1
[3] = molecular target: the molecule itself; test: cross-linking; recombinant human PRDX1 incubated with SK-bio in vitro (Supplementary Figure S7); dimer formation less efficient than in cells

Protein	stoichiometry N [1]	stoichiometry N [2]	further results
B1	2		
B2		2	
B3			stoichiometry N [3]: 2
B4		2	
B5		2	
B6	2		
B7	2		
B8	2		
